Target: YB1 (UniProt P67809)
Assay: reciprocal co-IP (anti-YB1, anti-WAVE3), blot

Substance	binding against the reference (reference: wild-type WAVE3 (W3-WT), sites Y151,Y248,Y337,Y486)	binding against the reference (reference: PRD-WT (GFP fusion), sites Y248,Y337)
WAVE3 (from UniProt Q9UPY6) W3-Y4F	lost	
WAVE3 proline-rich domain (PRD) (from UniProt Q9UPY6) PRD-DM (Y248F/Y337F)		weaker
